According to publication PMC4335783, “A novel psychrophilic alkaline phosphatase from the metagenome of tidal flat sediments” (BMC Biotechnology, 2015):

Tested on: T1, O=[N+]([O-])c1ccc(OP(=O)(O)O)cc1
T1 construct: printed as 527 residues, 56 kDa; C-terminal factor Xa site and His6 tag; E. coli BL21(DE3) periplasm; monomer
Experiment: purified protein
Format: biochemical, uncultured bacterium
Conditions: 37 °C, pH 9.0, 50 mM DEA, 0.5 mM CaCl2

mAP (metagenome-derived alkaline phosphatase) (uncultured bacterium)
Km: 180 µM | kcat: 952 s⁻¹ | kcat/Km: 5.3e+06 M⁻¹ s⁻¹
